Patent US20250018038A1 (UNIVERSITY OF CHICAGO, published 2025)
Positions count from the first letter of the chain named.

T1: Bor-N (Biotinylated Avi tag, held on neutravidin; not in the letters)
T1 construct: also called Bor N: 20-88; Borealin N-terminal domain; not shown: Avi tag, and any purification tag or linker
T1 chain: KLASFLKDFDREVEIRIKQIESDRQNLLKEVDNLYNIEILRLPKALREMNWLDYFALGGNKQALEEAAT

B1: SUR-N-36 Fab (Fab, V domains shown)
VH: EVQLVESGGGLVQPGGSLRLSCAASGFNVSYSSIHWVRQAPGKGLEWVASIYPYYGYTSYADSVKGRFTISADTSKNTAYLQMNSLRAEDTAVYYCAREEYSTVQYWYYYWYPGMDYWGQGTLVTVSS
VL: DIQMTQSPSSLSASVGDRVTITCRASQSVSSAVAWYQQKPGKAPKLLIYSASSLYSGVPSRFSGSRSGTDFTLTISSLQPEDFATYYCQQYMYSPITFGQGTKVEIKR
B2: SUR-N-40 Fab (Fab, V domains shown)
VH: EVQLVESGGGLVQPGGSLRLSCAASGFNFSSSSIHWVRQAPGKGLEWVAYIYPSYGYTSYADSVKGRFTISADTSKNTAYLQMNSLRAEDTAVYYCARSLYSKMWYYGSYYFYQVGLDYWGQGTLVTVSS
VL: B1 VL with Y91G, M92Y, Y93K, S94Y, P95L, I96V
B3: SUR-N-09 (Fab, V domains shown)
VH: EVQLVESGGGLVQPGGSLRLSCAASGFNFYYSSIHWVRQAPGKGLEWVASISPYSGYTSYADSVKGRFTISADTSKNTAYLQMNSLRAEDTAVYYCARYMYYGWALDYWGQGTLVTVSS
VL: DIQMTQSPSSLSASVGDRVTITCRASQSVSSAVAWYQQKPGKAPKLLIYSASSLYSGVPSRFSGSRSGTDFTLTISSLQPEDFATYYCQQGQWWGLITFGQGTKVEIKR
notes: also called SUR-N-09 Fab
B4: SUR-N-37 (Fab, V domains shown)
VH: EVQLVESGGGLVQPGGSLRLSCAASGFNVSYSSIHWVRQAPGKGLEWVASISSYYGSTSYADSVKGRFTISADTSKNTAYLQMNSLRAEDTAVYYCARSTYYSWYPYYYAMWHQHGMDYWGQGTLVTVSS
VL: B3 VL with G91S, Q92P, W93M, W94Y, G95S
notes: also called SUR-N-37 Fab
B5: SUR-FL-22 (Fab, V domains shown)
VH: EVQLVESGGGLVQPGGSLRLSCAASGFNFYSSYIHWVRQAPGKGLEWVASIYSYSSSTSYADSVKGRFTISADTSKNTAYLQMNSLRAEDTAVYYCARAGWYWYYGIQFAFDYWGQGTLVTVSS
VL: B3 VL with G91Q, Q92R, W93Y, W94G, G95S
notes: also called SUR-FL-22 Fab
B6: SUR-N-53 (Fab, V domains shown)
VH: EVQLVESGGGLVQPGGSLRLSCAASGFNVSSSYIHWVRQAPGKGLEWVASIYSYYGSTSYADSVKGRFTISADTSKNTAYLQMNSLRAEDTAVYYCARSFTEKWAYSWAIDYWGQGTLVTVSS
VL: B1 VL with M92A, Y93W, P95L, I96F
notes: also called SUR-N-53 Fab
B7: SUR-FL-25 (Fab, V domains shown)
VH: EVQLVESGGGLVQPGGSLRLSCAASGFNVYSSSIHWVRQAPGKGLEWVASIYPYYSYTSYADSVKGRFTISADTSKNTAYLQMNSLRAEDTAVYYCARWKKSRSGGMWGMDYWGQGTLVTVSS
VL: B1 VL with M92S, Y93S, S94F
notes: also called SUR-FL-25 Fab
B8: SUR-FL-23 (Fab, V domains shown)
VH: EVQLVESGGGLVQPGGSLRLSCAASGFNFSSSSIHWVRQAPGKGLEWVASISSYSSSTSYADSVKGRFTISADTSKNTAYLQMNSLRAEDTAVYYCARYMVSMWSYSWYVKWYAMDYWGQGTLVTVSS
VL: B1 VL with Y91S, M92S, Y93S, P95L
notes: also called SUR-FL-23 Fab
B9: SUR-FL-26 (Fab, V domains shown)
VH: EVQLVESGGGLVQPGGSLRLSCAASGFNVSYSSIHWVRQAPGKGLEWVASISPYYGYTYYADSVKGRFTISADTSKNTAYLQMNSLRAEDTAVYYCARWYFEYPYYMWGLDYWGQGTLVTVSS
VL: B1 VL with Y91S, M92Y, Y93K, S94P
notes: also called SUR-FL-26 Fab
B10: SUR-FL-24 (Fab, V domains shown)
VH: EVQLVESGGGLVQPGGSLRLSCAASGFNFYSSSIHWVRQAPGKGLEWVASIYPYYSSTSYADSVKGRFTISADTSKNTAYLQMNSLRAEDTAVYYCARWYHYYSVQQYGLDYWGQGTLVTVSS
VL: B1 VL with Y91S, M92T, Y93S, S94F
notes: also called SUR-FL-24 Fab
B11: SUR-FL-31 (Fab, V domains shown)
VH: EVQLVESGGGLVQPGGSLRLSCAASGFNFSSSSIHWVRQAPGKGLEWVASISSYSGYTYYADSVKGRFTISADTSKNTAYLQMNSLRAEDTAVYYCARGKQKSYGQWYFYYWAIDYWGQGTLVTVSS
VL: B1 VL with Y91S, M92S, Y93S, P95L
notes: also called SUR-FL-31 Fab
B12: SUR-N-28 (Fab, V domains shown)
VH: EVQLVESGGGLVQPGGSLRLSCAASGFNFSSSYIHWVRQAPGKGLEWVASIYSSYGYTSYADSVKGRFTISADTSKNTAYLQMNSLRAEDTAVYYCARSYYYQYSGGWRGYYHALDYWGQGTLVTVSS
VL: B1 VL with Y91S, M92S, Y93S, P95L
notes: also called SUR-N-28 Fab
B13: SUR-FL-47 (Fab, V domains shown)
VH: EVQLVESGGGLVQPGGSLRLSCAASGFNVSYSSIHWVRQAPGKGLEWVASIYSYYGYTSYADSVKGRFTISADTSKNTAYLQMNSLRAEDTAVYYCARWPHYWGQGVSSMDYWGQGTLVTVSS
VL: B1 VL with Y91S, M92Y, S94F, I96V
notes: also called SUR-FL-47 Fab
B14: SUR-FL-29 Fab (Fab, V domains shown)
VH: EVQLVESGGGLVQPGGSLRLSCAASGFNVSYYSIHWVRQAPGKGLEWVASIYPYYGSTSYADSVKGRFTISADTSKNTAYLQMNSLRAEDTAVYYCARWQFYGYYHGLYFTDLGIDYWGQGTLVTVSS
VL: B1 VL with Y91S, M92G, Y93G, S94F
B15: SUR-FL-52 (Fab, V domains shown)
VH: EVQLVESGGGLVQPGGSLRLSCAASGFNFSSSSIHWVRQAPGKGLEWVASIYPYSGSTYYADSVKGRFTISADTSKNTAYLQMNSLRAEDTAVYYCARWDFGYYYWYSAIDYWGQGTLVTVSS
VL: B1 VL with M92W, S94T, P95L
notes: also called SUR-FL-52 Fab
B16: SUR-N-07 (Fab, V domains shown)
VH: B15 VH with Y52S, S57Y, D100Y, F101W, G102A, Y104P, Y107W, S108Y, I110M
VL: B1 VL with Y91S, M92W, Y93G, S94P, I96V
notes: also called SUR-N-07 Fab
B17: SUR-FL-27 (Fab, V domains shown)
VH: EVQLVESGGGLVQPGGSLRLSCAASGFNVYSSYIHWVRQAPGKGLEWVASIYPSSGYTYYADSVKGRFTISADTSKNTAYLQMNSLRAEDTAVYYCARMSYYSWYYHSVYMYGLDYWGQGTLVTVSS
VL: DIQMTQSPSSLSASVGDRVTITCRASQSVSSAVAWYQQKPGKAPKLLIYSASSLYSGVPSRFSGSRSGTDFTLTISSLQPEDFATYYCQQASSDHSLITFGQGTKVEIKR
notes: also called SUR-FL-27 Fab

Biological target: T2, Survivin (purified recombinant Survivin protein) (human, UniProt O15392 1-140, limits assumed, biotinylated on the Avi-tag by BirA (antigens for selection and ELISA))
T2 construct: also called Baculoviral IAP repeat-containing protein 5; BIRC5
Experiment: SPR: target immobilised on NTA chip by His-tag, 2-fold serial dilutions of Fab, 1:1 Langmuir fit
Protocol: The targets were immobilized onto a nitrilotriacetic acid (NTA) sensor chip via His-tag. 2-fold serial dilutions of the Fab were injected following ligand immobilization on the sensor chip. For each kinetic assay at least five dilutions of the Fab were tested. The data were fitted using 1:1 Langmuir Model to obtain the on-rate, off-rate and the affinity (KD) of the Fab-target interaction. (FIG. 4).

T2 sequence (O15392 1-140 limits assumed): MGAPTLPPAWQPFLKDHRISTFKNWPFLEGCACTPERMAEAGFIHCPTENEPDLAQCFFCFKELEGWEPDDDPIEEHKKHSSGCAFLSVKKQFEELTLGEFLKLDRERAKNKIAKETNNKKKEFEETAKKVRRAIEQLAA

Row | Binder | Kd
1 | B1 | 4.2 nM
2 | B2 | 2.1 nM

Biological target: T2, Survivin (purified recombinant Survivin …)
Experiment: multipoint protein ELISA: 50 nM immobilised target, 3-fold serial dilutions of purified Fab, protein L-HRP, sigmoidal fit
Protocol: Protein based multipoint ELISA was performed to estimate the affinity of the generated unique Fabs to their cognate antigens. A fixed concentration of the immobilized target (50 nM) on ELISA plate was incubated with 3-fold serial dilutions of the purified Fabs starting from […] for 15 min. The plates were washed and the bound antigen-Fab complexes were incubated with H1RP-conjugated protein L (1:5000 dilution in PBST). As with phage ELISA, the plates were again washed, developed with TMB substrate and quenched with 1.0 M HCl, and absorbance (A450) was determined. To determine the affinity, the data were fitted in a non-linear sigmoidal function with variable slope in GraphPad PRISM and EC50 value was calculated (FIG. 2).

Row | Binder | EC50
3 | B3 | 30 nM
4 | B4 | 1 nM
5 | B5 | 3 nM
6 | B6 | 100 nM
7 | B7 | 10 nM
8 | B8 | 1 nM
9 | B9 | < 1 nM
10 | B10 | 18 nM
11 | B1 | 2 nM
12 | B11 | 2 nM
13 | B2 | < 1 nM
14 | B12 | 3 nM
15 | B13 | 29 nM

Biological target: T3, Survivin of murine tumor cells (CT-26, MC-38) (mouse, UniProt O70201)
T3 construct: also called murine survivin
Experiment: flow cytometry of live murine colon tumor cells, 200 nM Fab, anti-human F(ab')2-A647 secondary
Protocol: (§1) Human or murine tumor cells were trypsinized, washed and resuspended in Flow buffer (1×PBS supplemented with 2% FBS) and added to a 96-well plate (#3799, Costar). 200 nM primary CPC Fab was mixed with 0.5M cells and incubated at 37 C for 20 min. […] Samples were analyzed by flow cytometry using CytoFLEX (Beckman Coulter) and mean fluorescence intensity (MFI) data was extracted using the FlowJo software (FIG. 5A-E, FIG. 6). Human peripheral blood mononuclear cells (PBMCs) derived from a single patient were used as a source of healthy human cells. PBMCs were counted, split and spun down 400×g 5 min. Cells were resuspended in Flow buffer (1×PBS supplemented with 2% FBS) and pre-incubated with TruStain FcX (1:20, Biolegend 422302) for 10 min at 37 C, followed by 200 nM primary Fab incubation at 37 for 20 min. […] Mean fluorescence intensity (MFI) data was extracted using the FlowJo software (FIG. 5F).

T3 sequence (O70201 whole entry): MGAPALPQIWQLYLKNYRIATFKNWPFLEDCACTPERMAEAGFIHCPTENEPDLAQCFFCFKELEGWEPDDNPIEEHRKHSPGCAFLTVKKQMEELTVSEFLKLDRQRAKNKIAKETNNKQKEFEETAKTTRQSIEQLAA

Row | Binder | binding result
16 | B14 | binds
17 | B1 | binds
18 | B2 | binds

Biological target: T4, cell surface survivin on cancer cells (human, UniProt O15392 1-142)
T4 construct: whole, on cells
Experiment: flow cytometry of live cells, 200 nM Fab, anti-human F(ab')2-A647 secondary
Protocol: as §1

T4 sequence (O15392 whole entry): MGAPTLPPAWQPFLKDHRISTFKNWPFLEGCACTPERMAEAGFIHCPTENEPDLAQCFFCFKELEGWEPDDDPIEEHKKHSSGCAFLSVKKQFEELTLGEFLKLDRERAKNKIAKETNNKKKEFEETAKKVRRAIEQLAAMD

Row | Binder | binding result
19 | B14 | binds
20 | B15 | binds
21 | B16 | binds
22 | B17 | binds

Biological target: T1, Bor-N
Experiment: single point protein ELISA, 50 nM immobilised target
Protocol: To rapidly reconfirm the binding and specificity of the obtained Fabs after reformatting into the expression vectors single-point Fab ELISA was performed (FIG. 2-3). Briefly, 50 nM Avi-tagged targets were immobilized on the prepared NAV-coated and blocked with 0.5% BSA in PBS 96-well ELISA plates. The target coated plates were washed with appropriate buffer (TBST or PBST) and were incubated with 200 nM Fab for 20 minutes and then washed. The washed plates were incubated with protein L conjugated with HRP (1:5000 diluted in TBST) for 30 minutes. Plates were washed and the reaction was developed using the TMB chromogenic substrate (Thermofisher) and subsequently quenched with 1M HCl. Absorbance was read at 450 nm on Epoch plate reader.

Row | Binder | binding result
23 | B4 | no binding (tested: 200 nM)
